To fix the notation:
B1: library; a variant is named by its letters at X, in order (parent)
chain: MNIQIGELAKRTACPVVTIRFYEQEGLLPPPGRSRGNFRLYGEEHVERLQFIRHCRSLDMPLSDVRTLLSYRKRPDQDCGEVXMLLDEHIRQVESRIGALLELKHHLVELREACSGARPAQSCGILQXLSXCVCXTRGTTAHXSD

± gives the standard deviation of the averaged measurements.

Series [1] covers variants of B1. Kind of series: sfGFP reporter fluorescence (15 h) (µM FITC); higher = higher leak. Particulars: library round: Round 2; ligand: none. The procedure: (§1)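 Cell-free biosensing: 1 µL Echo-assembled CFE reactions with linear PbrR variant templates (5 nM) and pPbrR-sfGFP reporter, with 1 µM Pb, 30 µM Zn or no ligand; endpoint sfGFP fluorescence after 15 h at 30 °C calibrated as µM FITC. Round 2 ML-predicted PbrR mutants; up to 3 biological replicates.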

In series [2] the parent is B1. Kind of series: sfGFP reporter fluorescence (15 h) (µM FITC); higher = stronger transcriptional activation. The settings on record: library round: Round 2. The procedure: as §1

For MNIQIGELAKRTACPVVTIRFYEQEGLLPPPGRSRGNFRLYGEEHVERLQFIRHCRSLDMPLSDVRTLLSYRKRPDQDCGEVNMILDEHIRQVESRIGALLELVHHLVELREACSGARPAQSCGILQMLSDCVCDTRGTTAHPSD [NMDDP L85I K104V], the sfGFP reporter fluorescence in series [1] came to 0.131 ± 0.013; in series [2] (ligand: 1 µM Pb) it was 0.417 ± 0.024; in series [2] (ligand: 30 µM Zn), 1.99 ± 1.7.

Take MNMQIGELAKRTACPVVTIRFYEQEGLLPPPGRSRGNFRLYGEEHVERLQFIRHCRSLDMNLSDVRTLLSYRKRPDQDCGEVNMLLDEHIRQVESRIGALLELVHHCVELREACSGARPAQSCGILQMLSDCVCDTRGTTAHPSD [NMDDP I3M P61N K104V L107C]: the sfGFP reporter fluorescence in series [1] was 0.501 ± 0.013; in series [2] (ligand: 1 µM Pb), 0.989 ± 0.041; in series [2] (ligand: 30 µM Zn), 2.79 ± 0.18.

On to MNIQIGELAKRTACPVVTIRFYEQEGLLPPPGRSRGNFRLYGEEHVERLQFIRHCRSLDLPLSTVRTLLSYRKRPDQDCGEVNMLLDEHIRQVESRIGALLELKHHCVELREACSGARPAQSCGILQMLSDCVCDTRGTTAHPSD [NMDDP M60L D64T L107C], for which the sfGFP reporter fluorescence was found to be 3.16 ± 0.21 in series [1], 2.93 ± 0.29 in series [2] (ligand: 1 µM Pb) and 4.14 ± 0.31 in series [2] (ligand: 30 µM Zn).

In the case of MNIQIGELAKRTACPVVTIRFYEQEGLLPPPGRSRGNFRLYGEEHVERLQFIRHCRSLDMPLSDVRTLLSYRKRPDQDCGEVNMLLDEHIRQVESRIGALLELKHHCVELREACSGARPAQSCGILQMLSDCVCATRGTTAHPSD [NMDAP L107C], the sfGFP reporter fluorescence turned out to be 2.23 ± 0.28 in series [1], 3.21 ± 0.21 in series [2] (ligand: 1 µM Pb) and 3.29 ± 0.5 in series [2] (ligand: 30 µM Zn).

For the variant MNIQIGELAKRTACPVVTIRFYEQEGLLPPPGRSRGNFRLYGEEHVERLQFIRHCRSLDLPLSDVRTLLSYRKRPDQDCGEVNMLLDEHIRQVESRIGALLELKHHLVELREACSGARPAQSCGILQMLSDCVCDTRGTTAHASD [NMDDA M60L], the sfGFP reporter fluorescence in series [1] was determined as 0.805 ± 0.062; in series [2] (ligand: 1 µM Pb), 1.88 ± 0.22; in series [2] (ligand: 30 µM Zn), 3.33 ± 0.49.

For MNIQIGELAKRTACPVVTIRFYEQEGLLPPPGRSRGNFRLYGEEHVERLQFIRHCRSLDMPLSDVRTLLSYRKRPDQDCGEVNMLLDEHIRQVESRIGALLELKHHCVVLREACSGARPAQSCGILQMLSDCVCDTRGTTAHPSD [NMDDP L107C E109V], the sfGFP reporter fluorescence was 2.96 ± 0.17 in series [1], 3.18 ± 0.55 in series [2] (ligand: 1 µM Pb) and 3.51 ± 0.14 in series [2] (ligand: 30 µM Zn).

As to MNIQIGELAKRTACPVVTIRFYEQEGLLPPPGRSRGNFRLYGEEHVERLQFIRHCRSLDMPLSDVRTLLSYRKRPDQDCGEVNMLLDEHIRQVESRIGALLELVHHSVELREACSGARPAQSCGILQMLSDCVCDTRGTTAHPSD [NMDDP K104V L107S], the sfGFP reporter fluorescence in series [1] is 0.0726 ± 0.0093; in series [2] (ligand: 1 µM Pb), 0.159 ± 0.014; in series [2] (ligand: 30 µM Zn) it was 1.27 ± 0.068.
